The experiment addresses T1, wildtype (WT) HA trimer from A/New Caledonia/20/1999 (H1 1999 NC), soluble trimeric format (influenza A virus A/New …, UniProt Q6WG00).
T1 construct: also called wildtype HA
In words: ELISA. To be noted: both partners purified.

B1: CH65, HA receptor binding site specific monoclonal antibody (antibody, V domains shown)
VH: EVQLVQSGAEVKKPGASVKVSCKASGYTFTDYHINWVRQAPGQGLEWMGWIHPNSGDTNYAQKFQGWVTMTRDTAISTAYMEVNGLKSDDTAVYYCARGGLEPRSVDYYYYGMDVWGQGTTVTVSS
VL: SVLTQPPSVSVAPGQTARITCGGNDIGRKSVHWNQQKPGQAPVLVVCYDSDRPSGIPERFSGSNSGNTATLTISRVEAGDEADYYCQVWDSSSDHVIFGGGTKLTVL
Take B1: the binding result is “binds”.

The values above are taken from PMC5087089, “Reconstituted B cell receptor signaling reveals carbohydrate-dependent mode of activation” (Scientific Reports, 2016).
